The record followed here is the Immune Epitope Database (IEDB).

Where only a bound is given, the exact number is not on record here.

In test [1] the target is HLA-A*11:01. In words: IEDB peptide-MHC binding, purified MHC/competitive/fluorescence; ≥ and ≤ were set here for values at or beyond the usual limits of such assays.
For test [2], the target named is HLA-A*02:01. Described as above. The conditions noted are these: source organism: Zaire ebolavirus.
The target in test [3] is HLA-B*39:01. In words: IEDB peptide-MHC binding, purified MHC/direct/fluorescence; filed as Kd, often an IC50 or EC50 that approximates it; ≥ and ≤ were set here for values at or beyond the usual limits of such assays.
For test [4], the target named is HLA-A*03:01. In words: IEDB peptide-MHC binding, purified MHC/competitive/fluorescence; ≥ and ≤ were set here for values at or beyond the usual limits of such assays.
Test [5] addresses HLA-A*24:02. The description is as above.
Test [6] deals with HLA-A*02:12. Kind of test: IEDB peptide-MHC binding, purified MHC/direct/fluorescence; filed as Kd, often an IC50 or EC50 that approximates it; ≥ and ≤ were set here for values at or beyond the usual limits of such assays. Conditions: source organism: Orthohantavirus sangassouense.
The target of test [7] is HLA-A*02:11. The test is described as above. The conditions noted are these: source organism: Orthohantavirus sangassouense.
Test [8] addresses HLA-A*02:01. The test is described as above.
Test [9] has as its target HLA-A*69:01. The description is as above.
The target in test [10] is HLA-A*02:19. Described as above. Conditions: source organism: Orthohantavirus sangassouense.
For test [11], the target named is HLA-B*57:01. The description is as above.
In test [12] the target is HLA-B*58:01. The description is as above.
For test [13], the target named is HLA-B*15:17. Described as above.
Test [14] concerns the target HLA-B*57:01. In words: IEDB peptide-MHC binding, purified MHC/competitive/radioactivity; filed as Kd, often an IC50 or EC50 that approximates it; ≥ and ≤ were set here for values at or beyond the usual limits of such assays. Conditions: source organism: Dengue virus 2 Jamaica/1409/1983.
Test [15] deals with HLA-A*24:02. The description is as above. Conditions: source organism: Dengue virus 2 Jamaica/1409/1983.
In test [16] the target is HLA-B*53:01. The description is as above. Conditions: source organism: Dengue virus 2 Jamaica/1409/1983.
Test [17] concerns the target HLA-A*03:01. Kind of test: IEDB peptide-MHC binding, purified MHC/direct/fluorescence; filed as Kd, often an IC50 or EC50 that approximates it; ≥ and ≤ were set here for values at or beyond the usual limits of such assays. The conditions noted are these: source organism: Escherichia coli O157:H7.
Test [18] deals with HLA-B*08:01. Described as above. Conditions: source organism: Escherichia coli O157:H7.
Test [19] addresses HLA-B*07:02. The test is described as above. The conditions noted are these: source organism: Escherichia coli O157:H7.
Test [20] concerns the target HLA-B*27:05. Described as above. The conditions noted are these: source organism: Escherichia coli O157:H7.
For test [21], the target named is HLA-A*26:01. Described as above. Conditions: source organism: Escherichia coli O157:H7.
In test [22] the target is HLA-A*11:01. Described as above. The conditions noted are these: source organism: Escherichia coli O157:H7.
Test [23] addresses HLA-A*01:01. Described as above. Conditions: source organism: Escherichia coli O157:H7.
The target of test [24] is HLA-B*40:01. The description is as above. The conditions noted are these: source organism: Escherichia coli O157:H7.
Test [25] deals with HLA-A*31:01. The description is as above. The conditions noted are these: source organism: Escherichia coli O157:H7.
Test [26] deals with HLA-B*15:01. The test is described as above. Conditions: source organism: Escherichia coli O157:H7.
Test [27] addresses HLA-B*44:02. The description is as above. Conditions: source organism: Escherichia coli O157:H7.
For test [28], the target named is HLA-B*57:01. Kind of test: IEDB peptide-MHC binding, purified MHC/competitive/fluorescence; filed as Kd, often an IC50 or EC50 that approximates it; ≥ and ≤ were set here for values at or beyond the usual limits of such assays. Conditions: source organism: Homo sapiens.
The target in test [29] is HLA-A*26:01. The description is as above. The conditions noted are these: source organism: Homo sapiens.
For test [30], the target named is HLA-B*18:01. Described as above. Conditions: source organism: Homo sapiens.
Test [31] concerns the target HLA-B*51:01. Described as above. Conditions: source organism: Homo sapiens.
The target in test [32] is HLA-B*15:17. The description is as above. Conditions: source organism: Homo sapiens.
Test [33] addresses HLA-B*46:01. The test is described as above. Conditions: source organism: Homo sapiens.
For test [34], the target named is HLA-B*39:01. The description is as above. The conditions noted are these: source organism: Homo sapiens.
Test [35] addresses HLA-B*27:03. The description is as above. Conditions: source organism: Homo sapiens.
Test [36] has as its target HLA-B*15:01. The description is as above. The conditions noted are these: source organism: Homo sapiens.
The target in test [37] is HLA-A*69:01. The description is as above. Conditions: source organism: Homo sapiens.
Where [38] appears, read: source organism: Zaire ebolavirus.
Setting [39] is: source organism: Vaccinia virus Copenhagen.
[40] abbreviates: source organism: Sudan ebolavirus.
The mark [41] stands for this setting: source organism: Entamoeba histolytica HM-1:IMSS.
Where [42] appears, read: source organism: Escherichia coli O157:H7.
Where [43] appears, read: source organism: Burkholderia mallei.
The mark [44] stands for this setting: source organism: Marburg virus - Musoke, Kenya, 1980.
Where [45] appears, read: source organism: Vibrio parahaemolyticus.

For ATISTSPQS, the values for the IC50 in [1] (setting [38]) and in test [2] were 17.5 µM and at least 108 µM, respectively.

In test [3] (source organism: Influenza A virus (A/chicken/Nakorn-Patom/Thailand/CU-K3/2004(H5N1))), FHDSNVKNL gave an equilibrium dissociation constant (Kd) of 0.168 µM.

FHFFVHTLL displayed a dissociation constant (Kd) in test [3] (source organism: Camelpox virus M-96) of 0.052 µM.

In [3] (source organism: Escherichia coli O157:H7 str. EC869), FRAICTNGL had a Kd of 0.01 µM.

With FYRSGTETK, the IC50 in test [4] (setting [39]) was 64.2 µM; in test [1] (setting [39]), 44.1 µM; in test [5] (setting [39]) it was at least 99.2 µM.

For the sequence GEESASSGK, the IC50 in test [1] (setting [38]) was at least 314 µM.

GIYTEGLMH: the IC50 in test [4] (setting [40]) was 15.4 µM; in test [1] (setting [40]), 3.55 µM.

Regarding GLYPAQIKA, the Kd in [6] is 0.126 µM; in test [7] it was 0.033 µM; in [8] (source organism: Amur virus) it was 0.0035 µM; in test [9] (source organism: Amur virus) it was at least 20 µM; in test [10] it was at least 20 µM.

In turn, GTNTTTEDH came in with a half-inhibitory concentration (IC50) in test [1] (setting [38]) of at least 76.9 µM.

In the case of ISTLPTEQF, the figures for the Kd in test [11] (setting [41]), in [12] (setting [41]) and in [13] (setting [41]) were 0.238 µM, 0.0022 µM and 0.0065 µM, respectively.

With ITAAAWYLW, the Kd in [14] came to 0.000477 µM; in test [15] it was 0.0215 µM; in [16], 0.174 µM; in [13] (source organism: dengue virus type 2), 0.0067 µM.

Turning to KIDNNTFVR, the IC50 in test [4] (setting [40]) was found to be 31.9 µM; in [1] (setting [40]), 2.74 µM.

On to KSMRDQRKG, for which the IC50 in test [4] (source organism: Variola virus) is at least 119 µM; in test [1] (source organism: Variola virus), 47.3 µM.

Consider KTTIKFHPW, for which the dissociation constant (Kd) was 0.215 µM in test [11] (setting [42]); at least 20 µM in test [17]; at least 20 µM in test [18]; at least 20 µM in test [19]; at least 20 µM in [20]; at least 20 µM in [21]. Besides, the Kd in [22] was at least 20 µM; in test [8] (setting [42]), at least 20 µM; in test [23], at least 20 µM; in test [24], at least 20 µM; in test [12] (setting [42]), 0.0475 µM; in [13] (setting [42]), 0.0278 µM. The Kd in test [25] is 0.333 µM; in test [26] it was at least 20 µM; in test [27], at least 20 µM; in test [9] (setting [42]) it was at least 20 µM.

Take LITGGRRTR: the IC50 in test [4] (setting [38]) was at least 112 µM; in test [1] (setting [38]), at least 93.3 µM; in test [2] it was at least 111 µM.

Consider LLAMTFWPA, for which the Kd was 0.0002 µM in test [8] (source organism: Homo sapiens); at least 20 µM in test [28]; at least 20 µM in test [29]; at least 20 µM in [30]; at least 20 µM in test [31]; at least 20 µM in [32]. In addition, the Kd in test [33], in test [34] and in test [35] was at least 20 µM throughout.

Take LMQCWQLLA: the Kd in test [28], in [29], in test [30], in [31], in test [32] and in test [33] was at least 20 µM each time. For the same sequence, the Kd in test [36], in test [34], in [35] and in test [37] was at least 20 µM throughout.

Regarding RAMDTYHRW, the Kd in test [11] (setting [43]) was 0.0488 µM; in test [12] (setting [43]), 0.0105 µM; in [13] (setting [43]) it was 0.0021 µM.

As for RVIGYILFF, the Kd in [12] (setting [44]) was 2.04 µM; in test [13] (setting [44]), 0.129 µM.

As for SGYYSTTIR, the IC50 in test [4] (setting [38]) was 1.67 µM; in test [1] (setting [38]), 0.903 µM; in test [5] (setting [38]) it was at least 346 µM.

In test [1] (setting [40]), STTLFKIDN yielded an IC50 of at least 146 µM.

For the sequence WMFRIRIIL, the Kd in [28], in [29], in [31], in [33], in test [36] and in test [35] was at least 20 µM throughout. This sequence gave a Kd in test [37] of at least 20 µM.

For YGVKNLFDW, the equilibrium dissociation constant (Kd) in test [11] (setting [44]) was 0.0383 µM; in test [12] (setting [44]), at least 5 µM; in test [13] (setting [44]) it was 0.155 µM.

YSLGQGPVW: the Kd in test [12] (setting [45]) was 0.0026 µM; in test [13] (setting [45]) it was at most 0.001 µM.
